Laboratory results as given in paper PMC11999266, “Human glutathione transferases catalyze the reaction between glutathione and nitrooleic acid” (The Journal of Biological Chemistry, 2025).

Biological target: the molecule itself
Experiment: SEC; HiLoad 16/600 Superdex 200, Tris buffer (50 mM, pH 8.0, 150 mM NaCl), calibrated with proteins of known mass; final purification step

B1: Human glutathione transferase A4-4 (hGST A4-4) (enzyme, UniProt O15217 1-222, looked up)
chain: MAARPKLHYPNGRGRMESVRWVLAAAGVEFDEEFLETKEQLYKLQDGNHLLFQQVPMVEIDGMKLVQTRSILHYIADKHNLFGKNLKERTLIDMYVEGTLDLLELLIMHPFLKPDDQQKEVVNMAQKAIIRYFPVFEKILRGHGQSFLVGNQLSLADVILLQTILALEEKIPNILSAFPFLQEYTVKLSNIPTIKRFLEPGSKKKPPPDEIYVRTVYNIFRP
notes: Human glutathione transferase A4 (alpha class), ORF of GenBank Y13047.1; Homodimer; Expressed as a C-terminal fusion to His-tagged Trx1 with a TEV site in between; the fusion partner was cut off; the printed mass (25,761 Da) may include such a remnant (surmise); source: E. coli BL21(DE3), pET-Trx1b, purified (GSH-Sepharose, TEV cleavage, HisTrap flow through, SEC); not shown: His tag, N-terminal, …
  stoichiometry N: 2

B2: Human glutathione transferase M1-1 (hGST M1-1) (enzyme, UniProt P09488 1-218, looked up)
chain: MPMILGYWDIRGLAHAIRLLLEYTDSSYEEKKYTMGDAPDYDRSQWLNEKFKLGLDFPNLPYLIDGAHKITQSNAILCYIARKHNLCGETEEEKIRVDILENQTMDNHMQLGMICYNPEFEKLKPKYLEELPEKLKLYSEFLGKRPWFAGNKITFVDFLVYDVLDLHRIFEPKCLDAFPNLKDFISRFEGLEKISAYMKSSRFLPRPVFSKMAVWGNK
notes: Human glutathione transferase M1 (mu class), ORF of GenBank X08020.1; purified without tags; Homodimer; In the crystal it carries the small-molecule adduct GS-10-NO2-OA in the active site; source: E. coli BL21(DE3), pET22b, purified (GSH-Sepharose, SEC)
  stoichiometry N: 2
